Test results published in patent US7247703.

Target: HLA-A2.1 class I MHC molecule on T2 cells (human)
Assay: T2 class I MHC stabilization assay, anti-HLA-A2 immunofluorescent staining, peptide vs medium alone
Conditions: remark: other sources report otherwise

% Increase of class I stabilization on T2 [%]	Binder
10	TLSPGKNGV [p 1172-1180 HER-2/neu peptide …]
20	CLTSTVQLV [p 789-797 HER-2/neu peptide …]
20	HLYQGCQVV [p 48-56 HER-2/neu peptide …]
